For one assay, the target named is T1, mouse B7-H4-Fc (mouse; human).
T1 construct: also called mB7-H4-Fc; mB7-H4-hFc
The assay is described as follows: ELISA, coated mB7-H4-Fc. Here is the method:
(§1) About 1-2 μg/ml of human or mouse B7-H4-Fc (or his-tagged) was immobilized on ELISA plates (Immuno 2HB, Thermo scientific, cat #3455) at 4° C. overnight. After blocking the plates with 3% PBS+milk, serial diluted antibodies were added to the blocked plates and incubated at RT for 1-1.5 h. After washing the plates with PBS-T (0.05%), horse radish peroxidase (HRP)-conjugated antibody targeting the hFab was added to the plate. Signals were developed by adding 3,3′,5,5′-Tetramethylbenzidine (TMB (followed 1N of H₂SO₄ to stop the reaction. The OD at 450 nm was read by ELISA plate reader (Infinite M1000 from TECAN). GraphPad from Prism was used to plot OD450 vs. antibody concentration curve and to calculate the EC50 values.

Assay [1] deals with T2, IgC domain of human B7-H4-Fc (human).
T2 construct: also called hB7-H4 IgC domain
The assay is described as follows: ELISA, coated hB7-H4 IgC domain.

Assay [2] addresses T3, mouse B7-H4 expressed on cells (mouse, UniProt Q7TSP5 25-257).
T3 construct: also called cellular mB7-H4; mB7-H4/CT26
T3 sequence: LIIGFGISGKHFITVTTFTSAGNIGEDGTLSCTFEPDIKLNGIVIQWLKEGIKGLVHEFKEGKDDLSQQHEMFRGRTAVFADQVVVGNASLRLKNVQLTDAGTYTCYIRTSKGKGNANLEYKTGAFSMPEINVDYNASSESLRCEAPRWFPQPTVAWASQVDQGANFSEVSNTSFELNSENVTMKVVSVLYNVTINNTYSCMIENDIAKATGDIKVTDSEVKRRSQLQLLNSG
As to the kind of experiment: flow cytometry, mB7-H4/CT26 cells. Here is the method:
(§2) Cells were harvested, washed once, and then re-suspended to the concentration of 1×10⁶ cells/ml in ice cold FACS Buffer. 25 μl of cell suspension was added to each well of a 96-well round-bottom microliter plate. Serially diluted antibodies or fusion proteins were added to each well and incubated for 1 hour at 4° C. Cells were washed three times by centrifugation at 1500 rpm for 5 minutes, and then stained with secondary antibody (1:200 dilution) for 30 min at 4° C. in the dark. Cells were washed once, re-suspended in 100 μl PBS buffer and then analyzed using Guava Flow Cytometry EasyCyte system.

For assay [3], the target named is T4, hB7-H4 (soluble human B7-H4, construct not named) (human, UniProt Q7Z7D3 25-259, limits assumed).
T4 construct: also called soluble hB7-H4
T4 sequence: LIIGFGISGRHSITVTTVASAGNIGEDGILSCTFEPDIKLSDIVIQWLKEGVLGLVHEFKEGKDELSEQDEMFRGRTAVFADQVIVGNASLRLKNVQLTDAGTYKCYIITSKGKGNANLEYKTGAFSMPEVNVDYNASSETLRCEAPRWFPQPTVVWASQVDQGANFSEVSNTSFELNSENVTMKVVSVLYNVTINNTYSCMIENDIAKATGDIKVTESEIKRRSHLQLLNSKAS
The assay is described as follows: ELISA, hB7-H4. Here is the method:
as §1

The target of assay [4] is T5, mB7-H4 (soluble mouse B7-H4, construct not named) (mouse, UniProt Q7TSP5 25-257, limits assumed).
T5 sequence: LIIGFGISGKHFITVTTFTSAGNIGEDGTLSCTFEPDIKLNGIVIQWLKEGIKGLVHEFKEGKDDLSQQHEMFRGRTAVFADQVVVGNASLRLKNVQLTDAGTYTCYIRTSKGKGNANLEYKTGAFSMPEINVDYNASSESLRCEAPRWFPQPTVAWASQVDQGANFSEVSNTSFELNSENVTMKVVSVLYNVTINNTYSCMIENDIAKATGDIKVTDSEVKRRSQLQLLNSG
The assay is described as follows: ELISA, mB7-H4. On the procedure: as §1

In assay [5] the target is T6, human B7-H4 expressed on cells (human, UniProt Q7Z7D3 25-282).
T6 construct: Transfected CHO cells or tumor cell lines that carry hB7-H4; also called cellular hB7-H4
T6 sequence: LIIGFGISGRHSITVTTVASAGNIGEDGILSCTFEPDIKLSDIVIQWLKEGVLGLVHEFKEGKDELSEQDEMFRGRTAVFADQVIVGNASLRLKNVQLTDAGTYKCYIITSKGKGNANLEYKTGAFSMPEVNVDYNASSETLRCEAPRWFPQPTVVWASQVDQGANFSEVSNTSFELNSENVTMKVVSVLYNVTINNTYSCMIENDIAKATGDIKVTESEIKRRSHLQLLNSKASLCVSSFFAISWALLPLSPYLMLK
As to the kind of experiment: flow cytometry, SK-BR-3 cells. Here is the method:
as §2

The target of assay [6] is T5, mB7-H4 (soluble mouse B7-H4, construct …). The assay is described as follows: SPR (Biacore). On the procedure: (§3) Surface plasmon resonance experiments were performed using a Biacore T200 instrument equipped with CM5 sensor chips. The system was equilibrated in running buffer HBS-EP pH 7.4. The ligands were immobilized using amine-coupling chemistry. The surfaces of flow cells one through four were activated for 5 min using an amine coupling kit at a flow rate of […]. The ligands (human B7-H4-Fc, human B7-H4-hism and mouse B7-H4-Fc; at a concentration of 5 μg/ml in 10 mM sodium acetate, pH 5.0) were immobilized at a density of 50-100 RU on flow cell 2, 3, 4 respectively. Flow cell 1 was left blank to serve as a reference surface. All flow cell surfaces were blocked with a 5 min injection of 1 M ethanolamine, pH 8.0. To collect kinetic binding data, the respective analyte (diluted in 1×HBS-EP buffer, pH 7.4) was injected over the four flow cells at concentrations of 100 nM to 0.1 nM at a flow rate of […] and at a temperature of 25° C. The protein complex was allowed to associate and dissociate for 180 seconds and 1000 or 1200 seconds, respectively. The surfaces were regenerated with a 30 second injection of 1.5 M NaCl/0.05 M NaOH. The data were fit to a simple 1:1 interaction model using the Langmuir fit option available within the Biaevaluaton software

In assay [7] the target is T4, hB7-H4 (soluble human B7-H4, construct …). The assay is described as follows: SPR (Biacore). Here is the method: as §3
For assay [8], the target named is T7, IgC domain of mouse B7-H4-Fc (mouse; human).
T7 construct: also called mB7-H4 IgC domain
The assay is described as follows: ELISA, coated mB7-H4 IgC domain.

Another assay concerns the target T8, human B7-H4-his (human, UniProt Q7Z7D3 25-259).
T8 construct: also called hB7-H4-his; hB7-H4 his; not shown: his tag
T8 sequence: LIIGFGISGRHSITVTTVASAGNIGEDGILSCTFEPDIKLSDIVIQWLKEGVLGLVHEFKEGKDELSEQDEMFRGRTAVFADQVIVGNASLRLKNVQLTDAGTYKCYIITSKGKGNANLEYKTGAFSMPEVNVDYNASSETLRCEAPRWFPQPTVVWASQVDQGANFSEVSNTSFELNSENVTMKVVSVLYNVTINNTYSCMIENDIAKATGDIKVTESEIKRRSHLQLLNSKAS
The assay is described as follows: ELISA, coated hB7-H4-his. On the procedure: as §1

A further assay addresses T9, mouse B7-H4-his (mouse, UniProt Q7TSP5 25-257).
T9 construct: also called mB7-H4-his; mB7-H4-His; not shown: his tag
T9 sequence: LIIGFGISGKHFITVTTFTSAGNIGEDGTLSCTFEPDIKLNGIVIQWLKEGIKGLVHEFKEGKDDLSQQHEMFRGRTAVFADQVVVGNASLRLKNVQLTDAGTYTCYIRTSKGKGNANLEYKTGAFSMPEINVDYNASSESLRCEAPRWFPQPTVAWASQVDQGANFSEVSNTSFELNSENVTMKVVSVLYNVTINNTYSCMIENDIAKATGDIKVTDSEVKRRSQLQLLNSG
As to the kind of experiment: ELISA, coated mB7-H4-his (title on the sheet: Binding to mB7H4-his). On the procedure:
as §1

T1 sequence (chain, as listed by the source): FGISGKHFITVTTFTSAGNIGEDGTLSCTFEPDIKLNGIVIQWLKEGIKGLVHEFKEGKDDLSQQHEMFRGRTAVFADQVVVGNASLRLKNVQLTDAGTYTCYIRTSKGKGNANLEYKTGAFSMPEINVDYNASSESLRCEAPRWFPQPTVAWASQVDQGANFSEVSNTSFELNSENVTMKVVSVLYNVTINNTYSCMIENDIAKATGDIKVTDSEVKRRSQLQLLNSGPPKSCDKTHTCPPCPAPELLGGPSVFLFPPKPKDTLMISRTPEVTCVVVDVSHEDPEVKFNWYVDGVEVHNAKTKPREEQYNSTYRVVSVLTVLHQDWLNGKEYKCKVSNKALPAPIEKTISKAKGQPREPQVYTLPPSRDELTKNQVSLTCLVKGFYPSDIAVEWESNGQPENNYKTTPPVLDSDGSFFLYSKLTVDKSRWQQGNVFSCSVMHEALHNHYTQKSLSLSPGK
T2 sequence (chain, as listed by the source): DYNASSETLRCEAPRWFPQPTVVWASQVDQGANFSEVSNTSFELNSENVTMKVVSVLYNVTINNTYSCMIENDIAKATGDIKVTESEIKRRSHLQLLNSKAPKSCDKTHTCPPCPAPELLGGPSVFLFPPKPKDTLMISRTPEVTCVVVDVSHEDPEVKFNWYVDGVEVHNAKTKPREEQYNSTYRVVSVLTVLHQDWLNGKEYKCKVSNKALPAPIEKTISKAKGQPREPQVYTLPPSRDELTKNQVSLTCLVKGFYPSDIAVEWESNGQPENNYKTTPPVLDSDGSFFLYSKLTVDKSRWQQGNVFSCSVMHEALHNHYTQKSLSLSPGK
T7 sequence (chain, as listed by the source): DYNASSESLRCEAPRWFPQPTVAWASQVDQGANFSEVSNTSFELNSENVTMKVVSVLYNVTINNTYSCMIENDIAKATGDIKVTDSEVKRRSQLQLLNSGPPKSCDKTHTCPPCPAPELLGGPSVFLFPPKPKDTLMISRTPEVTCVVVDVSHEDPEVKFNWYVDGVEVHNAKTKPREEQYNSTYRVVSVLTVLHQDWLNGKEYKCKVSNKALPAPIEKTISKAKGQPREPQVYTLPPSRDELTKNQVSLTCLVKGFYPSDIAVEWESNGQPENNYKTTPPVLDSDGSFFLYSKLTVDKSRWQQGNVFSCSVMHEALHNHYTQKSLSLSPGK

B1: 39A11/56A9 (antibody, human IgG1, V domains shown)
VH: EVQLLESGGGLVQPGGSLRLSCAASGFTFSSYGMHWVRQAPGKGLEWVASISSSSGYIYYADSVKGRFTISRDNSKNTLYLQMNSLRAEDTAVYYCARASSGMDVWGQGTTVTVSS
VL: DIQMTQSPSSLSASVGDRVTITCRASQSISSYLNWYQQKPGKAPKLLIYAASIRESGVPSRFSGSGSGTDFTLTISSLQPEDFATYYCQQYYTTPLTFGQGTKLEIK
notes: 39A11 VH with 56A9 VL
B1: the binding result with mouse B7-H4-Fc is recorded as “binds”; in assay [1], “no binding (tested: log 1 nM (10 nM))”; in assay [8], “no binding (tested: log 1 nM (10 nM))”. Further, the EC50 in assay [2] stood at 1.85 nM; in [3], 0.081 nM; in assay [4] it was 0.13 nM; in assay [5] it was 2.53 nM. The equilibrium dissociation constant (Kd) in assay [6] amounted to 0.00138 nM; in assay [7], 1.21 nM.

B2: 39A11/56H7 (antibody, human IgG1, V domains shown)
VH: EVQLLESGGGLVQPGGSLRLSCAASGFTFSSYGMHWVRQAPGKGLEWVASISSSSGYIYYADSVKGRFTISRDNSKNTLYLQMNSLRAEDTAVYYCARASSGMDVWGQGTTVTVSS
VL: DIQMTQSPSSLSASVGDRVTITCRASQSISSYLNWYQQKPGKAPKLLIYAASNLQSGVPSRFSGSGSGTDFTLTISSLQPEDFATYYCQQYYTTPLTFGQGTKLEIK
notes: 39A11 VH with 56H7 VL
Turning to B2, the binding result with mouse B7-H4-Fc is recorded as “binds”; in assay [1], “no binding (tested: log 1 nM (10 nM))”; in [8], “no binding (tested: log 1 nM (10 nM))”. The EC50 in [2] was found to be 1.67 nM; in assay [3], 0.061 nM; in assay [4], 0.107 nM; in [5] it was 2.85 nM. Besides, the equilibrium dissociation constant (Kd) was determined as 0.000219 nM in [6] and 0.779 nM in [7].

B3: 39A11/57H3 (antibody, human IgG1, V domains shown)
VH: EVQLLESGGGLVQPGGSLRLSCAASGFTFSSYGMHWVRQAPGKGLEWVASISSSSGYIYYADSVKGRFTISRDNSKNTLYLQMNSLRAEDTAVYYCARASSGMDVWGQGTTVTVSS
VL: DIQMTQSPSSLSASVGDRVTITCQASQDIRKYLNWYQQKPGKAPKLLIYAASTRESGVPSRFSGSGSGTDFTLTISSLQPEDFATYYCQQYYSLPLTFGQGTKLEIK
notes: 39A11 VH with 57H3 VL
Consider B3, for which the binding result in the assay with mouse B7-H4-Fc is reported as “binds”; in assay [1] it was “no binding (tested: log 1 nM (10 nM))”; in assay [8], “no binding (tested: log 1 nM (10 nM))”. In addition, the EC50 in assay [2] was 1.63 nM; in [3], 0.086 nM; in assay [4] it was 0.128 nM; in assay [5], 2.07 nM. Also, the Kd was found to be 0.00125 nM in [6] and 0.478 nM in assay [7]. The molecule also returned a koff in assay [6] of 6.22e-07 s⁻¹.

B4: 39A11/62F9 (antibody, human IgG1, V domains shown)
VH: EVQLLESGGGLVQPGGSLRLSCAASGFTFSSYGMHWVRQAPGKGLEWVASISSSSGYIYYADSVKGRFTISRDNSKNTLYLQMNSLRAEDTAVYYCARASSGMDVWGQGTTVTVSS
VL: DIQMTQSPSSLSASVGDRVTITCRASQSVSSAVAWYQQKPGKAPKLLIYAASIRESGVPSRFSGSGSGTDFTLTISSLQPEDFATYYCQQYYSTPLTFGQGTKLEIK
notes: 39A11 VH with 62F9 VL
Consider B4, for which the binding result is listed as “binds” in the assay with mouse B7-H4-Fc, “no binding (tested: log 1 nM (10 nM))” in [1] and “no binding (tested: log 1 nM (10 nM))” in [8]. For the same molecule, the EC50 in [2] was 1.32 nM; in [3], 0.079 nM; in assay [4], 0.124 nM; in assay [5], 1.31 nM. The Kd in assay [6] was 1.85 nM; in assay [7], 0.853 nM.

B5: 9D11/67C3 (antibody, human IgG1, V domains shown)
VH: QVQLVQSGAEVKKPGASVKVSCKASGYTFTSYGISWVRQAPGQGLEWVGVINPNGGTTTYAQTFQGRVTMTRDTSTSTVYMELSSLRSEDTAVYYCARTGYSSGWAFDYWGRGTLVTVSS
VL: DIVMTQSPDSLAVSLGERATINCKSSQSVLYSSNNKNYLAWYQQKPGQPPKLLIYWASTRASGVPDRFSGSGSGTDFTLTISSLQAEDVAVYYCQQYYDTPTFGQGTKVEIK
notes: 9D11 VH with 67C3 VL
B5: the binding result in the assay with mouse B7-H4-Fc was “binds”. Further, the EC50 in assay [2] turned out to be 28.2 nM; in assay [3], 0.112 nM; in assay [4], 0.086 nM; in assay [5], 4.06 nM. For the same molecule, the “EC50 (read off the curve)” value in the assay with human B7-H4-his and with mouse B7-H4-his was ~0.2 nM each time. The values for the Kd in [6] and in [7] were 10.4 nM and 11.4 nM, respectively.

B6: 9D11/67E12 (antibody, human IgG1, V domains shown)
VH: QVQLVQSGAEVKKPGASVKVSCKASGYTFTSYGISWVRQAPGQGLEWVGVINPNGGTTTYAQTFQGRVTMTRDTSTSTVYMELSSLRSEDTAVYYCARTGYSSGWAFDYWGRGTLVTVSS
VL: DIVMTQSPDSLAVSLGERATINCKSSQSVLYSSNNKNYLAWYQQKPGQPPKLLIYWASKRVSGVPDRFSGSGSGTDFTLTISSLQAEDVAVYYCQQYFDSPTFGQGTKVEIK
notes: 9D11 VH with 67E12 VL
Consider B6, for which the binding result with mouse B7-H4-Fc is given as “binds”. The EC50 is 16.7 nM in [2], 0.203 nM in assay [3], 0.11 nM in [4] and 8.08 nM in assay [5]. In addition, the results for the “EC50 (read off the curve)” value with human B7-H4-his and in the assay with mouse B7-H4-his were ~0.2 nM and ~0.1 nM, respectively. The Kd was 4.66 nM in [6] and 6.3 nM in assay [7].

These data come from US20230312724A1 (KADMON, published 2023).
